These results are taken from patent publication US20230416365A1 (Hoffmann-La Roche, published 2023).

Where a chain is given by its changes, count along the chain named.

Assay [1] concerns the target T1, Hu N(A2-B2)A-avi-His (human, biotinylated at the avi tag (Example 2.2)).
T1 construct: also called hu N(A2-B2)A-avi-His B; CEACAM5-based antigen
T1 chain: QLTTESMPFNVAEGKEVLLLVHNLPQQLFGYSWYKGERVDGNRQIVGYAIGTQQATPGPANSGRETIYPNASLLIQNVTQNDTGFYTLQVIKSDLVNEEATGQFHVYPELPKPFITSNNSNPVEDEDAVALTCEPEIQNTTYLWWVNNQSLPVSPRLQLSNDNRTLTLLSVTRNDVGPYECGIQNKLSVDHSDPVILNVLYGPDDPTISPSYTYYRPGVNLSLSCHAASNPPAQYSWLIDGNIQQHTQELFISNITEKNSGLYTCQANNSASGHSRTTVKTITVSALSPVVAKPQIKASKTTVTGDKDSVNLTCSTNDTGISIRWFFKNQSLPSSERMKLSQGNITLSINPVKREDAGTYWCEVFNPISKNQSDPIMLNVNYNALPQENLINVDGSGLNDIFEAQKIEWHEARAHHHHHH
The experiment in a line: SPR, Biacore T200, antigen amine-coupled on CM5, Fab as analyte. For orientation: SPR reads the build-up and loss of mass on a sensor chip optically.
Excerpt: Data were double-referenced against the unimmobilized flow cell 1 and a zero concentration of the analyte. The sensorgrams of the analytes were fitted to a simple 1:1 Langmuir interaction model.

In assay [2] the target is T2, N(A2B2)A-avi-His (biotinylated at the avi tag).
T2 construct: also called biotinylated N(A2B2)A-avi-His
T2 chain: T1 chain
The experiment in a line: SPR, ProteOn, antigen on NLC chip, purified Fab as analyte.
Excerpt: About 2000, 1000, 500, and 250 RU of biotinylated N(A2B2)A-avi-His were immobilized on 4 channels of a Streptavidin-coated NLC chip in vertical orientation. As a control for non-specific binding, 2000 RU of biotinylated NA(B2)A-avi-His protein was immobilized on channel 5. For the determination of the affinity (KD) of the purified clones, injection direction was changed to horizontal orientation. Two-fold dilution series of purified Fab fragments (varying concentration ranges between 100 and 3 nM) were injected simultaneously at 100 μl/min along separate channels 1-5, with association times of 100 s, and dissociation times of 1200 s. Buffer (PBST) was injected along the sixth channel to provide an “in-line” blank for referencing. Regeneration was performed with 10 mM glycine pH 1.5 for 35 s at 50 μl/min (vertical orientation).
(§1) Association rate constants (kon) and dissociation rate constants (koff) were calculated using a simple one-to-one Langmuir binding model in ProteOn Manager v3.1 software by simultaneously fitting the association and dissociation sensorgrams. The equilibrium dissociation constant (KD) was calculated as the ratio koff/kon.

In assay [3] the target is T2, N(A2B2)A-avi-His. Nature of the assay: SPR off-rate, ProteOn, antigen on NLC chip, Fab in bacterial supernatant.
Excerpt: For this experiment, about 2000, 1000, and 500 RU of biotinylated N(A2B2)A-avi-His were immobilized on 3 channels using a Streptavidin-coated NLC chip in vertical orientation. As a control for non-specific binding, 2000 RU of biotinylated NA(B2)A-avi-His protein was immobilized on channel 4. For the off-rate analysis of the identified ELISA-positive clones, injection direction was changed to horizontal orientation. Before injection, each Fab-containing bacterial supernatant was filtered and 3-fold diluted with PBS. The association time was 100 s at 100 μl/minute and dissociation times were either 600 or 1200 s. Bacterial supernatant without Fab fragment was used for referencing. Regeneration was performed with 10 mM glycine pH 1.5 for 35 s at 50 μl/min (vertical orientation).
Dissociation rate constants (koff) were calculated using a simple one-to-one Langmuir binding model in ProteOn Manager v3.1 software by simultaneously fitting the sensorgrams. […] Shortlisted clones were re-evaluated in an additional SPR experiments under the same conditions. […] Bacterial supernatant without Fab fragment was used for referencing.
Assay [4] concerns the target T2, N(A2B2)A-avi-His. Nature of the assay: SPR, ProteOn, antigen on NLC chip, bispecific IgG as analyte.
Description: About 2000, 1000, 500, and 250 RU of biotinylated N(A2B2)A-avi-His were immobilized on 4 channels of a Streptavidin-coated NLC chip in vertical orientation. As a control for non-specific binding, 2000 RU of biotinylated NA(B2)A-avi-His protein was immobilized on channel 5. For the determination of the affinity (KD) of the purified bispecific constructs, injection direction was changed to horizontal orientation. […] Buffer (PBST) was injected along the sixth channel to provide an “in-line” blank for referencing. Regeneration was performed with 10 mM glycine pH 1.5 for 20 s at 50 ul/min (vertical orientation).
as §1
Assay [5] deals with T3, biotinylated huCD28-Fc (dimeric CD28-Fc construct with a monovalent biotinylated avi-tag) (human, UniProt P10747 19-152, biotinylated at the C-terminal avi tag).
T3 construct: not shown: hum IgG1 Fc fragment with hole and PG-LALA mutations; hum IgG1 Fc fragment with knob and PG-LALA mutations
Nature of the assay: SPR, ProteOn XPR36, huCD28-Fc immobilised, bispecific as analyte.

B1: CEA (A5B7) Fab (parental murine antibody) (Fab, V domains shown)
VH: EVKLVESGGGLVQPGGSLRLSCATSGFTFTDYYMNWVRQPPGKALEWLGFIGNKANGYTTEYSASVKGRFTISRDKSQSILYLQMNTLRAEDSATYYCTRDRGLRFYFDYWGQGTTLTVSS
VL: QTVLSQSPAILSASPGEKVTMTCRASSSVTYIHWYQQKPGSSPKSWIYATSNLASGVPARFSGSGSGTSYSLTISRVEAEDAATYYCQHWSSKPPTFGGGTKLEIK
notes: Fab; also called P1AE0289
Take B1: binding in assay [1] was put at a Kd of 0.559 nM.

B2: A5H1EL1D Fab (phage display format, parental clone) (Fab, V domains shown)
VH: EVQLLESGGGLVQPGGSLRLSCAASGFTFTDYYMNWVRQAPGKGLEWLGFIGNKANAYTTEYSASVKGRFTISRDKSKNTLYLQMNSLRAEDTATYYCTRDRGLRFYFDYWGQGTTVTVSS
VL: EIVLTQSPATLSLSPGERATLSCRASSSVTYIHWYQQKPGQAPRSWIYATSNLASGIPARFSGSGSGTDFTLTISSLEPEDFAVYYCQHWSSKPPTFGQGTKLEIK
notes: Fab from E. coli (bacterial supernatant or IMAC-purified), Flag tag
As for B2, in assay [2], the Kd – broadly, the concentration at which binding is half-saturated – is 2.3 nM; the koff – broadly, a measure of how fast the partners let go of each other – was 0.000248 s⁻¹; the kon (in general, the second-order rate constant of association) was determined as 108000 M⁻¹ s⁻¹. Besides, the koff in assay [3] was 0.00031 s⁻¹.

B3: Fab derived from P1AE2166 (Fab, V domains shown)
VH: B2 VH with A57G
VL: B2 VL with Q41S, A42S, R44K
notes: Fab; also called P1AE4137
B3 came in with a Kd in assay [1] of 11.3 nM.

B4: Fab derived from P1AE2182 (Fab, V domains shown)
VH: B2 VH with L48V, A57G, T95V, T99A
VL: B2 VL
notes: Fab; also called P1AE4143
Molecule B4 returned a Kd in assay [1] of 2.92 nM.

B5: Fab derived from P1AE2167 (Fab, V domains shown)
VH: B2 VH with A57G
VL: B2 VL
notes: Fab; also called P1AE4138
The molecule B5 returned a Kd in assay [1] of 1.47 nM.

B6: Fab derived from P1AE2164 (Fab, V domains shown)
VH: B2 VH with A57G
VL: B2 VL with E1Q, I2T, Q41S, A42S, R44K, F70Y
notes: Fab; also called P1AE4135
As to B6, in assay [1], the Kd is 1.7 nM.

B7: Fab derived from P1AE2177 (Fab, V domains shown)
VH: B2 VH with L48V, A57G, K76N, T95V
VL: B2 VL
notes: Fab; also called P1AE4140
B7 showed a Kd in assay [1] of 7.62 nM.

B8: Fab derived from P1AE2176 (Fab, V domains shown)
VH: B2 VH with L48V, A57G, K76N, T95V
VL: B2 VL with Q41S, A42S, R44K
notes: Fab; also called P1AE4139
B8 showed a Kd in assay [1] of 7.58 nM.

B9: Fab derived from P1AE2179 (Fab, V domains shown)
VH: B2 VH with L48V, A57G, T95V, T99A
VL: B2 VL with E1Q, I2T, Q41S, A42S, R44K, F70Y
notes: Fab; also called P1AE4141
On to B9, for which, in assay [1], binding was characterised by a dissociation constant (Kd) of 1.83 nM.

B10: Fab derived from P1AE2181 (Fab, V domains shown)
VH: B2 VH with L48V, A57G, T95V, T99A
VL: B2 VL with Q41S, A42S, R44K
notes: Fab; also called P1AE4142
For B10, the Kd in assay [1] is 2.64 nM.

B11: Fab derived from P1AE2165 (Fab, V domains shown)
VH: B2 VH with A57G
VL: B2 VL with E1Q, I2T, S45L, W46L
notes: Fab; also called P1AE4136
In assay [1], B11 returned a Kd of 1.25 nM.

B12: bispecific CEA (P002.139)-CD28 (SA Variant 15) 1+1 IgG (bispecific antibody)
heavy 1: EIVLTQSPATLSLSPGERATLSCHASSSVTYIHWYQQKPGQAPRSWIYATSNLASGIPARFSGSGSGTDFTLTISSLEPEDFAVYYCQHWSSKPPTFGQGTKLEIKSSASTKGPSVFPLAPSSKSTSGGTAALGCLVKDYFPEPVTVSWNSGALTSGVHTFPAVLQSSGLYSLSSVVTVPSSSLGTQTYICNVNHKPSNTKVDKKVEPKSCDKTHTCPPCPAPEAAGGPSVFLFPPKPKDTLMISRTPEVTCVVVDVSHEDPEVKFNWYVDGVEVHNAKTKPREEQYNSTYRVVSVLTVLHQDWLNGKEYKCKVSNKALGAPIEKTISKAKGQPREPQVCTLPPSRDELTKNQVSLSCAVKGFYPSDIAVEWESNGQPENNYKTTPPVLDSDGSFFLVSKLTVDKSRWQQGNVFSCSVMHEALHNHYTQKSLSLSP
light 1: EVQLLESGGGLVQPGGSLRLSCAASGFYFTDYAMNWVRQAPGKGLEWLGVISNKANAYTTEYSASVKGRFTISRDKSKNTLYLQMNSLRAEDTATYYCTRDRGLRFYFDYWGQGTTVTVSSASVAAPSVFIFPPSDEQLKSGTASVVCLLNNFYPREAKVQWKVDNALQSGNSQESVTEQDSKDSTYSLSSTLTLSKADYEKHKVYACEVTHQGLSSPVTKSFNRGEC
heavy 2: not shown
light 2: not shown
notes: knob-into-hole, crossmab, PG-LALA
In assay [4], B12 returned a Kd of 0.39 nM, a koff of 9.7e-05 s⁻¹ and a kon of 249000 M⁻¹ s⁻¹.

B13: CEA (A5H1EL1D)-CD28 (SA_Variant 29) 1+1 format (Molecule 11D) (bispecific antibody, human IgG1, kappa, L234A L235A)
heavy 1: B12 heavy 1 with H24R
light 1: B12 light 1 with Y28T, A33Y, V50F, S52G
heavy 2: not shown
light 2: not shown
notes: huIgG1 PG-LALA CrossFab; also called P1AE4776
In assay [5], B13 gave a Kd of 1.2 nM, a koff of 0.000324 s⁻¹ and a kon of 271000 M⁻¹ s⁻¹.

B14: bispecific CEA (P005.103-combo2)-CD28 (SA Variant 15) 1+1 IgG (bispecific antibody)
heavy 1: B12 heavy 1 with H24R, K93I, P94S
light 1: B12 light 1 with A33Y, L104I, Y107S
heavy 2: not shown
light 2: not shown
notes: as for B12
In assay [4], B14 returned a Kd of 0.09 nM, a koff of 1.05e-05 s⁻¹ and a kon of 123000 M⁻¹ s⁻¹.

B15: bispecific CEA (P006.038-combo1)-CD28 (SA Variant 15) 1+1 IgG (bispecific antibody)
heavy 1: B12 heavy 1 with H24R, K93V
light 1: B12 light 1 with L104I, Y107G
heavy 2: not shown
light 2: not shown
notes: as for B12
In the case of B15, in assay [4], binding was put at a Kd of 4.48 nM, the koff came to 0.000799 s⁻¹ and the kon is 178000 M⁻¹ s⁻¹.

B16: bispecific CEA (P005.102-combo1)-CD28 (SA Variant 15) 1+1 IgG (bispecific antibody)
heavy 1: B12 heavy 1 with H24R, P94S
light 1: B12 light 1 with A33Y, L104I, Y107Q
heavy 2: not shown
light 2: not shown
notes: as for B12
In assay [4], B16 yielded an equilibrium dissociation constant (Kd) of 0.06 nM, a koff of 1.23e-05 s⁻¹ and a kon of 207000 M⁻¹ s⁻¹.

B17: bispecific CEA (P005.097)-CD28 (SA Variant 15) 1+1 IgG (bispecific antibody)
heavy 1: B12 heavy 1 with H24R, K93Q
light 1: B12 light 1 with Y28T, A33Y, V50F, S52G, Y107S
heavy 2: not shown
light 2: not shown
notes: as for B12
In assay [4], B17 returned a Kd of 0.33 nM, a koff of 8.87e-05 s⁻¹ and a kon of 269000 M⁻¹ s⁻¹.

B18: bispecific CEA (P005.103)-CD28 (SA Variant 15) 1+1 IgG (bispecific antibody)
heavy 1: B12 heavy 1 with H24R, K93I, P94S
light 1: B12 light 1 with Y28T, A33Y, V50F, S52G, L104I
heavy 2: not shown
light 2: not shown
notes: as for B12
In assay [4], B18 returned a Kd of 0.44 nM, an off-rate constant (koff) of 0.000112 s⁻¹ and a kon of 257000 M⁻¹ s⁻¹.

B19: bispecific CEA (P005.103-combo1)-CD28 (SA Variant 15) 1+1 IgG (bispecific antibody)
heavy 1: B12 heavy 1 with H24R, K93I, P94S
light 1: B12 light 1 with Y28T, A33Y, V50F, S52G, L104I, Y107S
heavy 2: not shown
light 2: not shown
notes: as for B12
B19: in assay [4], the Kd is 0.27 nM, the koff came to 3.42e-05 s⁻¹ and the kon was determined as 126000 M⁻¹ s⁻¹.

B20: bispecific CEA (P006.038)-CD28 (SA Variant 15) 1+1 IgG (bispecific antibody)
heavy 1: B12 heavy 1 with H24R, K93V
light 1: B12 light 1 with Y28T, A33Y, V50F, S52G, L104I, Y107G
heavy 2: not shown
light 2: not shown
notes: as for B12
In assay [4], B20 displayed a Kd of 0.22 nM, an off-rate constant (koff) of 5.87e-05 s⁻¹ and a kon of 267000 M⁻¹ s⁻¹.

B21: CEA (A5H1EL1D)-CD28 (SA_Variant 8) 1+1 format (Molecule 11B) (bispecific antibody, human IgG1, kappa, L234A L235A)
heavy 1: B12 heavy 1 with H24R
light 1: B12 light 1 with Y28T, A33Y, V50F, S52G
heavy 2: not shown
light 2: not shown
notes: huIgG1 PG-LALA CrossFab; also called P1AE4774
Consider B21, for which, in assay [5], the affinity, expressed as Kd, was 58 nM; the koff was determined as 0.0098 s⁻¹; the kon is 169000 M⁻¹ s⁻¹.

B22: bispecific CEA (P006.038-combo2)-CD28 (SA Variant 15) 1+1 IgG (bispecific antibody)
heavy 1: B12 heavy 1 with H24R, K93V
light 1: B12 light 1 with Y28T, T30S, A33E, V50F, L104I, Y107G
heavy 2: not shown
light 2: not shown
notes: as for B12
With B22, in assay [4], binding was characterised by a dissociation constant (Kd) of 3.66 nM, the koff worked out at 0.000698 s⁻¹ and the kon was 191000 M⁻¹ s⁻¹.

B23: bispecific CEA (P005.102-combo2)-CD28 (SA Variant 15) 1+1 IgG (bispecific antibody)
heavy 1: B12 heavy 1 with H24R, P94S
light 1: B12 light 1 with T30S, A33Y, L104I, Y107Q
heavy 2: not shown
light 2: not shown
notes: as for B12
In assay [4], B23 displayed a Kd of 0.08 nM, a koff of 1.85e-05 s⁻¹ and a kon of 225000 M⁻¹ s⁻¹.
